Results published in PMC10786891, “Massively parallel profiling of RNA-targeting CRISPR-Cas13d”.
Numbering of substitutions follows the chain as printed.

T1: EsCas13d, nuclease-dead (Eubacterium siraeum, UniProt B0MS50, R295A;H300A;R849A;H854A)
T1 sequence: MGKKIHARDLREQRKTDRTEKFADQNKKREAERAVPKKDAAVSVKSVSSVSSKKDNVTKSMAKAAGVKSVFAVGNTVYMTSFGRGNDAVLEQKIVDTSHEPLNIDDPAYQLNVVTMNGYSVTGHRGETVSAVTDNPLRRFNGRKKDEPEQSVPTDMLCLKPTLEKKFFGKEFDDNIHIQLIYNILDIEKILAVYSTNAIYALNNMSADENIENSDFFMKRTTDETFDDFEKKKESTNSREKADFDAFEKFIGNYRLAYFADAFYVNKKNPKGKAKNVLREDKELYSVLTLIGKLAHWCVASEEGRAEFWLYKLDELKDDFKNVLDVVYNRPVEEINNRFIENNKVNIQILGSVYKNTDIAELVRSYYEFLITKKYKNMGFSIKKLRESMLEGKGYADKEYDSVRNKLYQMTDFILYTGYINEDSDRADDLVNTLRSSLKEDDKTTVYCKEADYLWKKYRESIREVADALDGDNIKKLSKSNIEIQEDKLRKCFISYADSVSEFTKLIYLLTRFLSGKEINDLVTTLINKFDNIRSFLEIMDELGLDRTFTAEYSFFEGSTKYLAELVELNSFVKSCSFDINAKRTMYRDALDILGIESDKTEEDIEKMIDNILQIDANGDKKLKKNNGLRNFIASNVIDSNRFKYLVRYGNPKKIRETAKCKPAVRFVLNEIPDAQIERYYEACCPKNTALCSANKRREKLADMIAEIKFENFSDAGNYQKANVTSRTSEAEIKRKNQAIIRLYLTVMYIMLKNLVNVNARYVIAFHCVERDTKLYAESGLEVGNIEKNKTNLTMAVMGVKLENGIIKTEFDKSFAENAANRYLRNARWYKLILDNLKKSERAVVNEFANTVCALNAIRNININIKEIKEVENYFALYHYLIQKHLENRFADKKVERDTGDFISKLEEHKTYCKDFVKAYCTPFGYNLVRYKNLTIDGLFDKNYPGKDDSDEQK

B1: target 1 insU 3' of 9,insG 3' of 6 (mixed)
RNA 1: CACCCGUGCAAAAAUGCAGGGGUCUAAAACUGAGCGGAUAACCUCUCUAUGG
RNA 2: GGGAAUGGAUCCACAUCUACGAAUUCGUACCAUAGAGAGGUUAUUCCGGCUCACCGAGAUCGGAAGAGCACACGU
B2: target 1 insA 3' of 10,insG 3' of 6 (mixed)
RNA 1: B1 RNA 1
RNA 2: B1 RNA 2 with U44A
B3: target 2 MT 5'PFS GCC 3'PFS AAA (mixed)
RNA 1: CACCCGUGCAAAAUUGCAGGGGUCUAAAACCUUCUCCAAAUUGUUUCAUCCU
RNA 2: GGGAAUGGAUCCACAUCUACGAAUUCGCCAGGAUGAAACAAUUUGGAGAAGAAAAGAUCGGAAGAGCACACGU
B4: target 2 MT 5'PFS AUA 3'PFS CCA (mixed)
RNA 1: B3 RNA 1
RNA 2: B3 RNA 2 with G27A, C28U, C29A, A52C, A53C
B5: target 2 MT 5'PFS GAG 3'PFS CUU (mixed)
RNA 1: B3 RNA 1
RNA 2: B3 RNA 2 with C28A, C29G, A52C, A53U, A54U
B6: target 2 MT 5'PFS CUG 3'PFS AGA (mixed)
RNA 1: B3 RNA 1
RNA 2: B3 RNA 2 with G27C, C28U, C29G, A53G
B7: target 2 MT 5'PFS CUG 3'PFS AGC (mixed)
RNA 1: B3 RNA 1
RNA 2: B3 RNA 2 with G27C, C28U, C29G, A53G, A54C
B8: target 2 MT 5'PFS UAA 3'PFS AAU (mixed)
RNA 1: B3 RNA 1
RNA 2: B3 RNA 2 with G27U, C28A, C29A, A54U
B9: target 2 MT 5'PFS GAU 3'PFS UAU (mixed)
RNA 1: B3 RNA 1
RNA 2: B3 RNA 2 with C28A, C29U, A52U, A54U
B10: target 2 MT 5'PFS UAA 3'PFS AAG (mixed)
RNA 1: B3 RNA 1
RNA 2: B3 RNA 2 with G27U, C28A, C29A, A54G
B11: target 2 MT 5'PFS UAA 3'PFS AAC (mixed)
RNA 1: B3 RNA 1
RNA 2: B3 RNA 2 with G27U, C28A, C29A, A54C
B12: target 2 MT 5'PFS GCC 3'PFS AAC (mixed)
RNA 1: B3 RNA 1
RNA 2: B3 RNA 2 with A54C
B13: target 2 MT 5'PFS CGC 3'PFS AGC (mixed)
RNA 1: B3 RNA 1
RNA 2: B3 RNA 2 with G27C, C28G, A53G, A54C
B14: target 2 MT 5'PFS AUA 3'PFS CCG (mixed)
RNA 1: B3 RNA 1
RNA 2: B3 RNA 2 with G27A, C28U, C29A, A52C, A53C, A54G
B15: target 2 MT 5'PFS GCC 3'PFS AAG (mixed)
RNA 1: B3 RNA 1
RNA 2: B3 RNA 2 with A54G
B16: target 2 MT 5'PFS GAC 3'PFS UCC (mixed)
RNA 1: B3 RNA 1
RNA 2: B3 RNA 2 with C28A, A52U, A53C, A54C
B17: target 2 MT 5'PFS UAA 3'PFS AAA (mixed)
RNA 1: B3 RNA 1
RNA 2: B3 RNA 2 with G27U, C28A, C29A
B18: target 2 MT 5'PFS CGC 3'PFS AGG (mixed)
RNA 1: B3 RNA 1
RNA 2: B3 RNA 2 with G27C, C28G, A53G, A54G

The binders below were run against T1, EsCas13d, nuclease-dead (assay: crRNA (strand 1, pre-loaded); Mg2+; 40 mM Tris-HCl pH 7.5, 150 mM NaCl, 6 mM MgCl2, 1 mM DTT, 0.1% Tween-20, 0.2 mg/ml BSA; 25 C; 10 min per concentration, then washed). Details: tags: His6-TwinStrep-SUMO cleaved; N-terminal SNAP kept (SNAP-Surface 488); label: 3' end held by stalled T7 RNA polymerase.
B1 showed a Kd of 12.1 ± 1.4 nM.
B2 gave a Kd of 9.9 ± 0.4 nM.
Work on B3 yielded a Kd of 11.9 ± 3.4 nM.
For B4, the Kd was 15.9 ± 2.5 nM.
Binder B5 has a Kd of 8.9 ± 0.7 nM.
For B6, the Kd was 2.16 ± 0.2 nM.
B7 showed a Kd of 2.52 ± 0.2 nM.
Work on B8 yielded a Kd of 4.7 ± 0.6 nM.
B9 gave a Kd of 16 ± 4 nM.
B10 was tested, and the Kd was 4.5 ± 0.6 nM.
Work on B11 yielded a Kd of 6.6 ± 1 nM.
B12 showed a Kd of 17 ± 5 nM.
B13 gave a Kd of 6.1 ± 1.5 nM.
B14 was tested, and the Kd was 8.5 ± 0.8 nM.
In the case of B15, the Kd is reported as 22 ± 5 nM.
In the case of B16, the Kd is reported as 50 ± 15 nM.
For B17, the Kd was 2.9 ± 0.8 nM.
B18 was tested, and the Kd was 3.4 ± 0.5 nM.
